# B1: His-SUMO-BdRFS^Δ1-45 (protein, not shown: small tags and cut ends; large carriers)
# chain: RVRAAGSSHKPGGAVVRSTLVDNKKIASESFDGPRPARSEPASPISEPSSPSKVRFTAYYGGTGSDGGDDGVVEGVKKCAERDEDDFNGESETAVLRRTASMRMRSTIKAPLMAAPDWEEKEMALRKRGDLGWYRHLDMAVLDGSVVRLWTGEVTAAVQASPRERRRAGLELHLSV
# What was measured:
# Test in all cases: co-immunoprecipitation with bead-bound His-SUMO-BdRFS^Δ1-45 from crude leaf protein extract, LC-MS/MS
# Conditions in all cases: scale: LFQ intensity
# [1] = target: Abscisic acid-, Stress- and Ripening-induced 2 (BdASR2, Bd4g24650) (Brachypodium distachyon)
# [2] = target: PLAT1 (Polycystin, Lipoxygenase, Alpha-toxin, and Triacylglycerol lipase 1) (Brachypodium distachyon)
# [3] = target: Phospholipase D α1 (BdPLD α1, Bd2g04480) (Brachypodium distachyon)
# [4] = target: NCED1 (Nine-cis Epoxycarotenoid Cleavage Dioxygenase 1) (Brachypodium distachyon)
# [5] = target: LPR2 (Low Phosphate Root 2; cupredoxin family) (Brachypodium distachyon)
binder,measurement,setting,value
B1,average LFQ intensity in eluate,[1],5.19e+07
same,average LFQ intensity in eluate,[2],2.25e+07
same,average LFQ intensity in eluate,[3],9.17e+06
same,average LFQ intensity in eluate,[4],1.48e+07
same,average LFQ intensity in eluate,[5],2.53e+07
